Test results published in paper PMC3141235.

Target: yAsf1 mutant V94R labeled with Alexa Fluor 532 (S. cerevisiae)
Assay: other fluorescence titration

- Kd: 0.29 µM
Substance: X. laevis H3^C110A / H4^T71C labeled with the Qsy9 fluorescence quencher (complex)
